Data reported in patent US20140271701A1.

Target: serum antibodies (IgG) of Sardinian T1D patients, Example 1 (n=34; Ab+ sera) (human)
Test: competition ELISA on MAP3865c125-133-coated plates, sera pre-adsorbed with saturating peptide

B1: MAP3865c125-133 peptide (…) (peptide)
peptide: MIAVALAGL
- percent inhibition: 57 to 89%
